Source: the DeepSol protein solubility set

Assay: soluble on expression in E. coli; label from the status in PepcDB or PDB records

Sequence	soluble on expression in E. coli
MSTVIKGGTIVTADLTYKADVKVEGGRIVEIGPNLSGAETLDATGCYVMPGGIDPHTHLEMPFMGTYSSDDFESGTRAALAGGTTMVVDFALPSPGQSLLEALTMWDNKSTRANCDYSFHMAITWWGEQVFNEMETIVKDKGINTFKHFMAYKGALMVDDDEMFSSFQRCAALGALPLVHAENGDVVAQLQAKLLAEGNSGPEAHAYSRPAEVEGEAANRAIMIADMAGCPVYIVHTSCEQAHEAIRRARAKGMRVFGEPLIQHLTLDETEYFDKDWDHAARRVMSPPFRNKLHQDSLWAGLASGSLQVVATDHCAFTTEQKRFGVGDFTRIPNGTGGLEDRMPMLWTYGVATGRITMNEFVAVTSTNIAKILNIYPKKGAILVGADADLVVWDPKRSKTISAKTQQSAIDYNVFEGKTVTGLPRFTLTRGVVSIEEGTVKTQEGHGEFVRRDPFPAVSTALSTWKEVTAPRAVQRSGIPASGVHHHHHH	soluble
MASISTPFPISLHPKTVRSKPLKFRVLTRPIKASGSETPDLTVATRTGSKDLPIRNIPGNYGLPIVGPIKDRWDYFYDQGAEEFFKSRIRKYNSTVYRVNMPPGAFIAENPQVVALLDGKSFPVLFDVDKVEKKDLFTGTYMPSTELTGGYRILSYLDPSEPKHEKLKNLLFFLLKSSRNRIFPEFQATYSELFDSLEKELSLKGKADFGGSSDGTAFNFLARAFYGTNPADTKLKADAPGLITKWVLFNLHPLLSIGLPRVIEEPLIHTFSLPPALVKSDYQRLYEFFLESAGEILVEADKLGISREEATHNLLFATCFNTWGGMKILFPNMVKRIGRAGHQVHNRLAEEIRSVIKSNGGELTMGAIEKMELTKSVVYECLRFEPPVTAQYGRAKKDLVIESHDAAFKVKAGEMLYGYQPLATRDPKIFDRADEFVPERFVGEEGEKLLRHVLWSNGPETETPTVGNKQCAGKDFVVLVARLFVIEIFRRYDSFDIEVGTSPLGSSVNFSSLRKASF	soluble
MNNQKQQKPTLSGQRFKTRKRDEKERFDPTQFQDCIIQGLTETGTDLEAVAKFLDASGAKLDYRRYAETLFDILVAGGMLAPGGTLADDMMRTDVCVFAAQEDLETMQAFAQVFNKLIRRYKYLEKGFEDEVKKLLLFLKGFSESERNKLAMLTGVLLANGTLNASILNSLYNENLVKEGVSAAFAVKLFKSWINEKDINAVAASLRKVSMDNRLMELFPANKQSVEHFTKYFTEAGLKELSEYVRNQQTIGARKELQKELQEQMSRGDPFKDIILYVKEEMKKNNIHFMKAFQKIVVLFYKAEVLSEEPILKWYKDAHVAKGKSVFLEQMKKFVEWLKNAEEESESEAEEGD	not soluble
SLPGMEHNHNHDHSSHGNHAMHDVGPADATYDLRFIDAMIQHHYGAIEMAKVTINQGYPGAGALASQIISAQSWEIANMLRQRQLRFPDAPIMPVRYTPGQSTVLSQLQPMTEADKVAMRMSGTMDMTGDRGKAFAAAMIPHHEMAIAMAEDALAKSGDSFVRSISWEIIRTQSDEIRRLRGLL	not soluble
MSRAASLRAELTSLANAFEEERISSAERLDADLVRQAVEQAKPENLEQWKQVVHDATAKLQQFWEDSEQALIRETYALATSYLRESDDEVHRLQMTKKALEEQLETERRRSTRIEEQLAALQSRLLDSAAPAATTPADDARTQQEVLRSELQGFMQELVRNQRESLRVLQEELQRVREEASVREENLLRQIAHLKTELAVARTDNEVSSRQLRQLETSAGREEVQDELGPGTIWPPHLTPRRGHRRFQRHNRLEDAPAPPEF	not soluble
MEKPVMCKIIDVLDESPTVKTFLLDKEFDFKPGQFAMVWIPEIDEKPFGFSSKNSISIAKVGRFTEKIHSLKKGDLLGIRGPYGNNFEYMGSKILAVAGGIGSAPIISAVEKFSKMDVEVTSIIGGRTKDELLFLDRFEKCGRTFACTDDCSYGFGGFTTEKMLELLSKEKFDMIISCGPEIMMKKVVEIAEKHAIPIQVSLERYMKCGIGICGHCAVDDEGLCICKDGPVFWNDKLKFVSEFGKYKRDASGAIL	not soluble
MAHHHHHHMVGARFFFLNLPTSLSSASSLNRNKITSNRLPTDPSTPQWRDGYKLRKAVDDSSTQSTHRLPIYFCNAQRRVSSHSGRKTLLLATICIYDVGALDSFPIVLLVPLLNFIKSGLNEVDGSADCVDFSEYQCLTAPFPTTFRISLCPRLRFGGQFFFFCTHSRGDKNSRSILSHQRLAKFVPLFHTWYNEQDIS	not soluble
MCQMPCQFSWPYTHYFTQTKNKEKILNKLIVFTGGPGAGKTSVIEQLKTQGFICAPETGRHVIQMQVANHGSALPWNDKQAFRDEMTKEEVSNYRSFNVRQGDVFFDRSIVDVYGYSKLEQLPISHELITHCQTLRYHSQVFIFPPWASIFSNDEERKQDFSEAVATYQQMVDAYHKFGYQLIEVPKMSVEDRVAFILGSVIELEHHHHHH	soluble
MGSDKIHHHHHHMKYLPLYPILARYPFLRIASRVFSFNIEDELRKFLDTVEAAKRIVDKAIDGRVEYDRFTDESEFFCLGCEENCYDCQKRGTLEGCDLCMGCFENCSLYYPREAVERFYTNAKLSLLTYIASRMIVSAMEDWVRMRYAVNEASYYSRLLREDVEESGKEPIVRLVAIDLGAKLKGWKMHVSTFVRVSARIKDDKWRLVNRKLRNGWVETTKAEVLRGLEELLRMKLFEKVPVSEAVSEAVRELSRKAKRESEKFAMDLGEVDLNCLPPCMREILSELQRGMNIPHTARFAITSFLLNIGMTVDEIIALFKSAPDFDDEKTRYQVEHIAGERGKGAEYTSPSCDTMRTYSNCVADCRVSHPLIYYKKCKSKS	not soluble
MGSDKIHHHHHHMAATSNQIKSKVWDNKQEYHLTIESLRMLLENRIPLIRLKEFATPQECEILVAQAELFNFDCYQNVNPKIERIGITVFEYNRISKAAYFQAVERTTKLRDCIMAASFNPLERLMVKIQECTGATVRIASEPLYGSYYAGLIRKIEQGTQLHIDYAPLEQSKWEIGTVIYQLSWNLYLKFSPNNHGQTRIYDRQWQPGDEQYKLDSYGYGDTVIADADTIAFQPYVGDVFIFNTRNYHTVEPMDGQRVTFTSAIGLLPNGEIILWS	not soluble
MGSDKIHHHHHHMESIKQIYRMGHGPSSSHTMGPMRAAQMFLERNRGAVRFNVTLYGSLAATGKGHMTDAAILEVLQPVAKTNITWEPKTFLPFHPNGMLFESYNESGEELDTWTVYSIGGGTLANESFNELRTEQVYDMHTIKEIQAWCEKTGHSYWEYVEQHEGPSIWDYLAEVWEVMQDAVRRGLEAEGILPGGLGIRRKASDYMIRAKGYGSSIKSRGMVYAYALAVSEENACGGKIVTAPTCGSCGVMPAVLYHLKETREFRDSRILRALATAGLFGNVVRTNASVSGAEVGCQGEVGVACAMAAAAASQLFGGTPAQIEYAAEMGLEHHLGLTCDPVCGLVQIPCIERNAFAAARALDANTFSNFSDGKHRVSFDQVVEVMRQTGNDLPSLYKETSEGGLAKNMENSNN	not soluble
MLSVDYENFDLISYLYNLVRQIPDGMVSTYGDLAEALGDPVAARSVGFMLSINKEPDYIPCYKVVPHDGSVGNYTHPLGSAEKMRRLIRDGITITNGHISNFEKVRFREFKTDYPLRKLRELQFKIGRLYDDRNDYSLDTIAAFDVSYKETRGYASKVVYNKGKIGAYVYSSDSMFPYIPGYLAFKEFKFIRALYDNETMILIDGNGILHPRFAGLATHAGVSLKTASIGIAKHLINCTVKGSDLLISGVVAGKMIGHHTIVSPGNRINVEEAGRLIEQREGKEMRSLLRLAHNLTRLHIETNGNIARYDFSTRNTAIQSSLEHHHHHH	not soluble
MGSDKIHHHHHHMIRVIDCTLREGCQARQCSFDSAQSVQLAREIAALGVDMIECGHPRISADERERVRAVVAAVSTPVLAHARARREDIDAVLETGAQWVGLFASINAISLETKFKGMNREEVLELFHDAIRYARERGLRVRATVEDAARTSVSDLVSMIATARDAGADRICFADSVGILLPDETFDVLSLLRHEFPDVVFEYHVHNDRGLALGNTLAAIQAGVQWHSASCNGIGERAGITDTFQLLTLLHTKFAADRFNLKNVLAVSELVEAHSRIKRSPMHPVVGENAFVHVARLHQLAMQENQDAYSAFDPELINGRVSLQRYTPMHRQSLFLTPFEKSASELKYHRHGPGKRFVMLDRRLLDGSPFYFIARQFHDVGDGGPGHVDSHVHNCDSVFLFLGSDEDYRGLEVEVLLGGQLRRLQSPASVFIPAGVEHSYRYLGGSGTYINFVHKGDYHESLLEITQ	not soluble
MRIAAAVVSIGLAVIAGFAVPVADAHPSEPGVVSYAVLGKGSVGNIVGAPMGWEAVFTRPFQAFWVELPACNNWVDIGLPEVYDDPDLASFNGATTQTSATDQTHLVKQAVGVFASNDAADRAFHRVVDRTVGCSGQTTAIHLDDGTTQVWSFAGGPSTGTDEAWTKQEAGTDRRCFVQTRLRENVLLQAKVCQSGNAGPAVNVLAGAMQNTLG	soluble
MAKVIFQDNFLLMGTNYHEKEANKVMAEIGKKSPYWDKDKDFISDYIKSNFKDIYKYYRVSTKDVEIVREPLNRHDPNAIKVMVNKTFVGYFPADLAKRLTPYVKKSSHYQMEATLTGRGGQYKTLKNDLKTVVTKKKDITYKLRLTILKVDRVSKSKNAGLLESIASWFLNLEHHHHHH	soluble
MLITKNQAEKWFDNSLGKQFNPDLFYGFQCYDYANMFFMLATGERLQGLYAYNIPFDNKAKIEKYGQIIKNYDSFLPQKLDIVVFPSKYGGGAGHVEIVESANLNTFTSFGQNWNGKGWTNGVAQPGWGPETVTRHVHYYDNPMYFIRLNFPNNLSVGNKAKGIIKQATTKKEAVIKPKKIMLVAGHGYNDPGAVGNGTNERDFIRKYITPNIAKYLRHAGHEVALYGGSSQSQDMYQDTAYGVNVGNKKDYGLYWVKSQGYDIVLEIHLDAAGESASGGHVIISSQFNADTIDKSIQDVIKNNLGQIRGVTPRNDLLNVNVSAEININYRLSELGFITNKNDMDWIKKNYDLYSKLIAGAIHGKPIGGVVASEVKAPVKNEKNPPVPAGYTLDKNNVPYKKEQGNYTVANVKGNNVRDGYSTNSRITGVLPNNTTITYDGAYCINGYRWITYIANSGQRRYIATGEVDIAGNRISSFGKFSAV	soluble
MTEYNNNFDRELGWDDEITQDSVGFVQLVPGDYQFTVTNMERARHTPNPKSPGKLPACNKAVVTIQIETSEGIAQLTHNLFLHTTTEGMLSAFFGAIGQKKHGEPLKMNWNTVIGAKGVARINKRKGTGDYADREYDNIKSMIYADEVDWTKVLNKDVAQPQQMTHQQSAQPTYQGQQAQGTNFAQQPATQSYQQGQMQTPQQPQGGWGGF	not soluble
MAVLCGVCGIKEFKYKCPRCLVQTCSLECSKKHKTRDNCSGQTHDPKEYISSEALKQADDDKHERNAYVQRDYNYLTQLKRMVHVQKMDARMKNKRVLGPVGGHNSNFKKRRYDIDEDDRDSTECQRIIRRGVNCLMLPKGMQRSSQNRSKWDKTMDLFVWSVEWILCPMQEKGEKKELFKHVSHRIKETDFLVQGMGKNVFQKCCEFYRLAGTSSCIEGEDGSETKEERTQILQKSGLKFYTKTFPYNTTHIMDSKKLVELAIHEKCIGELLKNTTVIEFPTIFVAMTEADLPEGYEVLHQEPRPLEHTSTLNKFIDNAREEEDAEEDSQPTEEPVQKETQDASDSDSDSDDDYNPGLSMDFLTA	not soluble
SLSMKLLIADDEDTIRNGIAKYIKLHTDRFSQIYLAENGQQALDIILQYQPDMMLLDVQMPLKTGLEVLQEAQKLSLVPKTIILSGYDDFEYARKALRYGAKDYLLKPCRSSEILEAINKLVQEQLGTKEDVECEEGTGIHYIVSSAIEYMEEYYHKNLTLIEVSNKVGITAGYLSTLFTQNMNCGFVEYLNKIRIKHACSYLEQNYFKTYEIAYKVGFKDEKYFSKVFKKETGITPYEYRRDHSIGKNIRTEG	soluble
SSAESASQIPKGQVDLLDFIDWSGVECLNQSSSHSLPNALKQGYREDEGLNLESDADEQLLIYIPFNQVIKLHSFAIKGPEEEGPKTVKFFSNKEHMCFSNVNDFPPSDTAELTEENLKGKPVVLKYVKFQNVRSLTIFIEANQSGSEVTKVQKIALYGST	soluble
